Experimental findings from paper PMC10369947 are described below.

Where two headings read alike, the source gives them in different places.

Holding throughout (assay): smFRET
Data set [1] deals with T1, GAF-DBD (GAF-ZnF, Cy3) (Drosophila melanogaster, UniProt Q08605).
T1 sequence: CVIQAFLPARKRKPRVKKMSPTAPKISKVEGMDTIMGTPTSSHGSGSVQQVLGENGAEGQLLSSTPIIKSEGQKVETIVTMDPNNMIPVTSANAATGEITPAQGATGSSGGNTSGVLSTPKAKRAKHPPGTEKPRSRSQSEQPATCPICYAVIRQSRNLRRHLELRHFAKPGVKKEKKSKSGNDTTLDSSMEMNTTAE

Data set [2] deals with T1, GAF-DBD (GAF-ZnF, Cy3). The source holds these as a separate data set.
The target in data set [3] is T1, GAF-DBD (GAF-ZnF, Cy3). The source holds these as a separate data set.
Data set [4] addresses T1, GAF-DBD (GAF-ZnF, Cy3). The source holds these as a separate data set.

B1: hsp70 tandem Cy5/Cy7 DNA (187 bp) (dsDNA)
DNA 1: TCATTTGTTTGGCAGAAAGAAAACTCTCAAAATTTCGTTGGCCGTTATAGCATATTCGTTTTGTGAGAGAGGGAGAGAGTACTATTGTTAACCCACAAGGTCGCACAGTAAACGGCACACTGTACGTGTTGCTTCGAGAGAGCGCGCCACCTGGTGTCGCGAAAAGAGCGCCGGAGTATAAATAGAG
DNA 2: CTCTATTTATACTCCGGCGCTCTTTTCGCGACACCAGGTGGCGCGCTCTCTCGAAGCAACACGTACAGTGTGCCGTTTACTGTGCGACCTTGTGGGTTAACAATAGTACTCTCTCCCTCTCTCACAAAACGAATATGCTATAACGGCCAACGAAATTTTGAGAGTTTTCTTTCTGCCAAACAAATGA
modifications: amino-C6-T coupled dyes
As to B1, the binding result in the data set with GAF-DBD (GAF-ZnF, Cy3) [1] is on record as “binds”.

B2: hsp70 Site 2 Only Cy5/Cy7 DNA (dsDNA)
DNA 1: TCATTTGTTTGGCAGAAAGAAAACTCTCAAAATTTCGTTGGCCGTTATAGCATATTCGTTTTGTCCAGCACTGTAATAGTACTATTGTTAACCCACAAGGTCGCACAGTAAACGGCACACTGTACGTGTTGCTTCGAGAGAGCGCGCCACCTGGTGTCGCGAAAAGAGCGCCGGAGTATAAATAGAG
DNA 2: CTCTATTTATACTCCGGCGCTCTTTTCGCGACACCAGGTGGCGCGCTCTCTCGAAGCAACACGTACAGTGTGCCGTTTACTGTGCGACCTTGTGGGTTAACAATAGTACTATTACAGTGCTGGACAAAACGAATATGCTATAACGGCCAACGAAATTTTGAGAGTTTTCTTTCTGCCAAACAAATGA
modifications: amino-C6-T coupled dyes
As for B2, the binding result with GAF-DBD (GAF-ZnF, Cy3) [2] is “binds”.

B3: hsp70 flipped Cy5/Cy7 DNA (187 bp) (dsDNA)
DNA 1: TCATTTGTTTGGCAGAAAGAAAACTCTCAAAATTTCGTTGGCCGTTATAGCATATTCGTTTTGTGACTCTCCCTCTCTGTACTATTGTTAACCCACAAGGTCGCACAGTAAACGGCACACTGTACGTGTTGCTTCGAGAGAGCGCGCCACCTGGTGTCGCGAAAAGAGCGCCGGAGTATAAATAGAG
DNA 2: CTCTATTTATACTCCGGCGCTCTTTTCGCGACACCAGGTGGCGCGCTCTCTCGAAGCAACACGTACAGTGTGCCGTTTACTGTGCGACCTTGTGGGTTAACAATAGTACAGAGAGGGAGAGTCACAAAACGAATATGCTATAACGGCCAACGAAATTTTGAGAGTTTTCTTTCTGCCAAACAAATGA
modifications: amino-C6-T coupled dyes
In the case of B3, the binding result with GAF-DBD (GAF-ZnF, Cy3) [3] is “binds”.

B4: Cognate-Motif Cy5-DNA (90 bp) (dsDNA)
DNA 1: GTTTTGTGAGTACGCGCTGTTGTACTATTGTTAACCCACAAGGTCGCACAGTAAACGGCACACTGTACGTGTTGCTTCGAGAGAGCGCGC
DNA 2: GCGCGCTCTCTCGAAGCAACACGTACAGTGTGCCGTTTACTGTGCGACCTTGTGGGTTAACAATAGTACAACAGCGCGTACTCACAAAAC
modifications: internal backbone Cy5 in strand 2
In the case of B4, the binding result in the data set with GAF-DBD (GAF-ZnF, Cy3) [4] was “binds”.
